{"source": "patent US20090192048A1", "about": "“METHOD OF PRODUCING A […] AGENT FOR BINDING A LIGAND” (priority 2005, published 2009)", "note": "Ends that are not written are not given here.", "data": [{"experiment": "Retention of peptides P1-1 to P1-5 on a polypropylene sheet after successive washes", "assay_type": "physicochemical", "details": "after first wash scan; unwashed control array", "description": "(§1) Further experiments were undertaken to investigate the retention of peptides P1-1 to, P1-5 and P2-1 to P2-2, shown in Table 3, on a polypropylene surface.\n(§2) The polypropylene sheet was wiped with 50% (v/v) aqueous acetonitrile prior to use.\n(§3) 8× replicate 20 nl volumes of 1 μM peptides P1-1 to P1-5 and P2-1 to P2-2 and TAMRA in dimethyl sulphoxide (DMSO) were dispensed at 1 mm spacing to a 3″×1″×1 mm polypropylene sheet using the Piezorray system (PerkinElmer LAS). 500 drops were pre-dispensed using the ‘side shoot’ option and the tuning was set to 72V for 30 μs.\n(§4) The slide was imaged at 10 μm resolution on a Typhoon Trio Plus variable mode imager (Amersham Biosciences) with the green (532 nm) laser and the 580 BP 30 filter at a PMT voltage of 600 V and at normal sensitivity. The scan height was set at the platen and the samples were pressed during scanning. The fluorescence image was analysed using ImageQuant TL v2003.03 (Amersham Biosciences).\n(§5) The lower half of the slide (containing the test array) was then washed in 100 ml of 1 M NaCl containing 10 mM tris-HCl (pH 8.0) for one minute and were re-scanned as described above.\n(§6) The same half of the slide was then washed for a second time in 100 ml of 1 M NaCl containing 10 mM tris-HCl (pH 8.0) for 30 minutes and re-scanned as described above.\n(§7) The same half of the slide was then washed for a third time in 100 ml of water for 30 minutes and re-scanned as described above.", "values": [{"substance": "TAMRA-F-G-F-G-F-G-F-G-F-G-F-S-F-A-F-D-F-G-F ({TAMRA}-FGFGFGFGFGFSFAFDFGF) [Peptide P1-5]", "Average fluorescence, control array": "199,347,483"}, {"substance": "TAMRA-F-G-F-G-F-G-F-S-F-A-F-D-F-G-F ({TAMRA}-FGFGFGFSFAFDFGF) [Peptide P1-3]", "Average fluorescence, control array": "192,743,469"}]}, {"experiment": "Retention of peptides P1-1 to P1-5 on a polypropylene sheet after successive washes", "assay_type": "physicochemical", "details": "after first wash scan; unwashed control array; slide background subtracted", "description": "as §1, §2, §3, §4, §5, §6, §7", "values": [{"substance": "TAMRA-F-G-F-G-F-G-F-G-F-G-F-S-F-A-F-D-F-G-F ({TAMRA}-FGFGFGFGFGFSFAFDFGF) [Peptide P1-5]", "Corrected signal, control array": "52,655,810"}, {"substance": "TAMRA-F-G-F-G-F-G-F-S-F-A-F-D-F-G-F ({TAMRA}-FGFGFGFSFAFDFGF) [Peptide P1-3]", "Corrected signal, control array": "46,051,796"}]}, {"experiment": "Retention of peptides P1-1 to P1-5 on a polypropylene sheet after successive washes", "assay_type": "physicochemical", "details": "after first wash: 1 M NaCl/10 mM tris-HCl (pH 8.0), one minute", "description": "as §1, §2, §3, §4, §5, §6, §7", "values": [{"substance": "TAMRA-F-G-F-G-F-G-F-G-F-G-F-S-F-A-F-D-F-G-F ({TAMRA}-FGFGFGFGFGFSFAFDFGF) [Peptide P1-5]", "Average fluorescence, test array": "201,991,732"}, {"substance": "TAMRA-F-G-F-G-F-G-F-S-F-A-F-D-F-G-F ({TAMRA}-FGFGFGFSFAFDFGF) [Peptide P1-3]", "Average fluorescence, test array": "171,197,973"}]}, {"experiment": "Retention of peptides P1-1 to P1-5 on a polypropylene sheet after successive washes", "assay_type": "physicochemical", "details": "after first wash: 1 M NaCl/10 mM tris-HCl (pH 8.0), one minute; background subtracted", "description": "as §1, §2, §3, §4, §5, §6, §7", "values": [{"substance": "TAMRA-F-G-F-G-F-G-F-G-F-G-F-S-F-A-F-D-F-G-F ({TAMRA}-FGFGFGFGFGFSFAFDFGF) [Peptide P1-5]", "Corrected signal, test array": "47,493,774"}, {"substance": "TAMRA-F-G-F-G-F-G-F-S-F-A-F-D-F-G-F ({TAMRA}-FGFGFGFSFAFDFGF) [Peptide P1-3]", "Corrected signal, test array": "16,700,014"}]}, {"experiment": "Retention of peptides P1-1 to P1-5 on a polypropylene sheet after successive washes", "assay_type": "physicochemical", "details": "after second wash scan; unwashed control array", "description": "as §1, §2, §3, §4, §5, §6, §7", "values": [{"substance": "TAMRA-F-G-F-G-F-G-F-G-F-G-F-S-F-A-F-D-F-G-F ({TAMRA}-FGFGFGFGFGFSFAFDFGF) [Peptide P1-5]", "Average fluorescence, control array": "190,847,825"}, {"substance": "TAMRA-F-G-F-G-F-G-F-S-F-A-F-D-F-G-F ({TAMRA}-FGFGFGFSFAFDFGF) [Peptide P1-3]", "Average fluorescence, control array": "187,310,655"}]}, {"experiment": "Retention of peptides P1-1 to P1-5 on a polypropylene sheet after successive washes", "assay_type": "physicochemical", "details": "after second wash scan; unwashed control array; background subtracted", "description": "as §1, §2, §3, §4, §5, §6, §7", "values": [{"substance": "TAMRA-F-G-F-G-F-G-F-G-F-G-F-S-F-A-F-D-F-G-F ({TAMRA}-FGFGFGFGFGFSFAFDFGF) [Peptide P1-5]", "Corrected signal, control array": "53,567,975"}, {"substance": "TAMRA-F-G-F-G-F-G-F-S-F-A-F-D-F-G-F ({TAMRA}-FGFGFGFSFAFDFGF) [Peptide P1-3]", "Corrected signal, control array": "50,030,806"}]}, {"experiment": "Retention of peptides P1-1 to P1-5 on a polypropylene sheet after successive washes", "assay_type": "physicochemical", "details": "after second wash: 1 M NaCl/10 mM tris-HCl (pH 8.0), 30 minutes", "description": "as §1, §2, §3, §4, §5, §6, §7", "values": [{"substance": "TAMRA-F-G-F-G-F-G-F-G-F-G-F-S-F-A-F-D-F-G-F ({TAMRA}-FGFGFGFGFGFSFAFDFGF) [Peptide P1-5]", "Average fluorescence, test array": "167,865,473"}, {"substance": "TAMRA-F-G-F-G-F-G-F-S-F-A-F-D-F-G-F ({TAMRA}-FGFGFGFSFAFDFGF) [Peptide P1-3]", "Average fluorescence, test array": "148,725,456"}]}, {"experiment": "Retention of peptides P1-1 to P1-5 on a polypropylene sheet after successive washes", "assay_type": "physicochemical", "details": "after second wash: 1 M NaCl/10 mM tris-HCl (pH 8.0), 30 minutes; background subtracted", "description": "as §1, §2, §3, §4, §5, §6, §7", "values": [{"substance": "TAMRA-F-G-F-G-F-G-F-G-F-G-F-S-F-A-F-D-F-G-F ({TAMRA}-FGFGFGFGFGFSFAFDFGF) [Peptide P1-5]", "Corrected signal, test array": "35,418,169"}, {"substance": "TAMRA-F-G-F-G-F-G-F-S-F-A-F-D-F-G-F ({TAMRA}-FGFGFGFSFAFDFGF) [Peptide P1-3]", "Corrected signal, test array": "16,278,152"}]}, {"experiment": "Retention of peptides P1-1 to P1-5 on a polypropylene sheet after successive washes", "assay_type": "physicochemical", "details": "after third wash scan; unwashed control array", "description": "as §1, §2, §3, §4, §5, §6, §7", "values": [{"substance": "TAMRA-F-G-F-G-F-G-F-G-F-G-F-S-F-A-F-D-F-G-F ({TAMRA}-FGFGFGFGFGFSFAFDFGF) [Peptide P1-5]", "Average fluorescence, control array": "183,492,293"}, {"substance": "TAMRA-F-G-F-G-F-G-F-S-F-A-F-D-F-G-F ({TAMRA}-FGFGFGFSFAFDFGF) [Peptide P1-3]", "Average fluorescence, control array": "184,219,147"}]}, {"experiment": "Retention of peptides P1-1 to P1-5 on a polypropylene sheet after successive washes", "assay_type": "physicochemical", "details": "after third wash scan; unwashed control array; background subtracted", "description": "as §1, §2, §3, §4, §5, §6, §7", "values": [{"substance": "TAMRA-F-G-F-G-F-G-F-G-F-G-F-S-F-A-F-D-F-G-F ({TAMRA}-FGFGFGFGFGFSFAFDFGF) [Peptide P1-5]", "Corrected signal, control array": "49,585,053"}, {"substance": "TAMRA-F-G-F-G-F-G-F-S-F-A-F-D-F-G-F ({TAMRA}-FGFGFGFSFAFDFGF) [Peptide P1-3]", "Corrected signal, control array": "50,311,907"}]}, {"experiment": "Retention of peptides P1-1 to P1-5 on a polypropylene sheet after successive washes", "assay_type": "physicochemical", "details": "after third wash: water, 30 minutes", "description": "as §1, §2, §3, §4, §5, §6, §7", "values": [{"substance": "TAMRA-F-G-F-G-F-G-F-G-F-G-F-S-F-A-F-D-F-G-F ({TAMRA}-FGFGFGFGFGFSFAFDFGF) [Peptide P1-5]", "Average fluorescence, test array": "147,812,043"}, {"substance": "TAMRA-F-G-F-G-F-G-F-S-F-A-F-D-F-G-F ({TAMRA}-FGFGFGFSFAFDFGF) [Peptide P1-3]", "Average fluorescence, test array": "125,717,642"}]}, {"experiment": "Retention of peptides P1-1 to P1-5 on a polypropylene sheet after successive washes", "assay_type": "physicochemical", "details": "after third wash: water, 30 minutes; background subtracted", "description": "as §1, §2, §3, §4, §5, §6, §7", "values": [{"substance": "TAMRA-F-G-F-G-F-G-F-G-F-G-F-S-F-A-F-D-F-G-F ({TAMRA}-FGFGFGFGFGFSFAFDFGF) [Peptide P1-5]", "Corrected signal, test array": "23,514,817"}, {"substance": "TAMRA-F-G-F-G-F-G-F-S-F-A-F-D-F-G-F ({TAMRA}-FGFGFGFSFAFDFGF) [Peptide P1-3]", "Corrected signal, test array": "1,420,417"}]}, {"experiment": "Retention of peptides P1-1 to P1-5 on a polypropylene sheet after successive washes", "assay_type": "physicochemical", "details": "compared among P1-1 to P1-5; chain length of 19 amino acids", "description": "as §1, §2, §3, §4, §5, §6, §7", "values": [{"substance": "TAMRA-F-G-F-G-F-G-F-G-F-G-F-S-F-A-F-D-F-G-F ({TAMRA}-FGFGFGFGFGFSFAFDFGF) [Peptide P1-5]", "Retention on polypropylene surface (in words)": "highest retention"}]}]}
